Data set [1] addresses Vivid (VVD) truncated at the N-terminus by 36 residues, with an N-terminal 6xHis tag (Neurospora crassa) (UniProt Q9C3Y6).
Data set [2] deals with the molecule itself. Description: SDS-PAGE and Western blot of the aggregated pellet; purified VVD36 given a 5-min blue-light pulse, kept 24 h at 25°C in standard buffer (10% glycerol, 50 mM HEPES, 150 mM NaCl, 20 mM imidazole, pH 8), centrifuged; pellet run on SDS-PAGE and blotted against the 6xHis tag; with DTT present oligomer formation was limited.

Experimental findings from publication PMC6054393, “Light induces oxidative damage and protein stability in the fungal photoreceptor Vivid” (PLoS ONE, 2018) are described below.

“catalase from Aspergillus niger (from UniProt P55303 1-730) (enzyme)”: in data set [1], the photoadduct mean lifetime of VVD with A. niger catalase at 2.34 uM (optical absorbance) was found to be 1100 s.

B1: Vivid (VVD) truncated at the N-terminus by 36 residues, with an N-terminal 6xHis tag (domain or fragment, Neurospora crassa, UniProt Q9C3Y6 37-186, looked up)
chain: HTLYAPGGYDIMGYLIQIMNRPNPQVELGPVDTSCALILCDLKQKDTPIVYASEAFLYMTGYSNAEVLGRNCRFLQSPDGMVKPKSTRKYVDSNTINTMRKAIDRNAEVQVEVVNFKKNGQRFVNFLTMIPVRDETGEYRYSMGFQCETE
notes: Vivid (VVD), LOV photoreceptor of Neurospora crassa, wild type, first 36 amino acids deleted (VVD36); The plasmid came from B. R. Crane; The sample carries some self-oxidative damage (oxidised D82, Y87, F92, F159, N161 found in the aggregated pellet); also called VVD36; dark-VVD; not shown: His6, N-terminal, kept
In the case of B1, the binding result in data set [2] is reported as “binds”.
